Assays:
[1] = target: human FcγRIIa^H131 extracellular domain with AviTag and 6×his tag (human) (UniProt P12318); assay: SPR; Biacore T200, HBS-EP+ buffer, 20 °C; 500 nM his-tagged FcγR extracellular domains captured by anti-his antibody on a CM5 chip; twofold serially diluted antibody variants injected (120 s association, 130 s dissociation, 30 μL/min); 1:1 binding kinetics model or steady state affinity model
[2] = target: human FcγRIIIa^F158 extracellular domain with AviTag and 6×his tag (human) (UniProt P08637); assay: as above
Sequence of human FcγRIIIa^F158 extracellular domain with AviTag and 6×his tag (human) (P08637 17-208): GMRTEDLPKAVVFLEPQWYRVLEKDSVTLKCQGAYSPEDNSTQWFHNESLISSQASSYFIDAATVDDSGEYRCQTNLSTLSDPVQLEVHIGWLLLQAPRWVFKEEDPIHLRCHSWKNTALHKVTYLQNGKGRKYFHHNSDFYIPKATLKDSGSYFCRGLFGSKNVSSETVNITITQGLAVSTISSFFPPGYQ

[3] = target: human FcγRIIa^R131 extracellular domain with AviTag and 6×his tag (human); assay: as above
[4] = target: human FcγRIIIa^V158 extracellular domain with AviTag and 6×his tag (human); assay: as above
[5] = target: human FcγRIIb extracellular domain with AviTag and 6×his tag (human) (UniProt P31994); assay: as above
Sequence of human FcγRIIb extracellular domain with AviTag and 6×his tag (human) (P31994 43-217): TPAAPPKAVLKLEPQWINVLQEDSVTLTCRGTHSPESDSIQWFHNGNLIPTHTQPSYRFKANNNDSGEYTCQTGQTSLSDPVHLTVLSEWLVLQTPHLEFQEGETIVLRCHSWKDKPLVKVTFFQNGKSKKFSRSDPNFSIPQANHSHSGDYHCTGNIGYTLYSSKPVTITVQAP

[6] = target: human FcRn, his-tagged (human) (UniProt P55899); assay: SPR; as a1, his-tagged FcRn captured by anti-his antibody, antibody variants injected; pH 6
Sequence of human FcRn, his-tagged (human) (P55899 24-297): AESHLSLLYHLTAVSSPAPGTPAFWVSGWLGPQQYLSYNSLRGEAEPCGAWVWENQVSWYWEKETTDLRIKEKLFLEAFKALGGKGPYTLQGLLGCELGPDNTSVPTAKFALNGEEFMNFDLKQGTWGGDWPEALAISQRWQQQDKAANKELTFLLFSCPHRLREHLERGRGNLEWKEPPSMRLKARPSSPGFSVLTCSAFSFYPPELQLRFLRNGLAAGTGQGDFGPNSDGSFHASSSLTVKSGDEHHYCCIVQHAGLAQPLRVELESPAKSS

[7] = target: human FcγRI extracellular domain, his-tagged (human) (UniProt P12314); assay: SPR; Biacore T200, HBS-EP+ buffer, 20 °C; 500 nM his-tagged FcγR extracellular domains captured by anti-his antibody on a CM5 chip; twofold serially diluted antibody variants injected (120 s association, 130 s dissociation, 30 μL/min); 1:1 binding kinetics model or steady state affinity model
Sequence of human FcγRI extracellular domain, his-tagged (human) (P12314 16-292): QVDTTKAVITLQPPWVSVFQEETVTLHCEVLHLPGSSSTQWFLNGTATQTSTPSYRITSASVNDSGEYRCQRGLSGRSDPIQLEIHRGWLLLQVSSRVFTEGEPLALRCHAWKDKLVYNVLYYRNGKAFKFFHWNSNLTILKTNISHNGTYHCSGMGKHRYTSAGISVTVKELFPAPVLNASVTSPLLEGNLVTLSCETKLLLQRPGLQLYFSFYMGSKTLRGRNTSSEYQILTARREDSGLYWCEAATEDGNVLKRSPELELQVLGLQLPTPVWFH

Sequence of human FcγRIIa^H131 extracellular domain with AviTag and 6×his tag (human) (P12318 34-217): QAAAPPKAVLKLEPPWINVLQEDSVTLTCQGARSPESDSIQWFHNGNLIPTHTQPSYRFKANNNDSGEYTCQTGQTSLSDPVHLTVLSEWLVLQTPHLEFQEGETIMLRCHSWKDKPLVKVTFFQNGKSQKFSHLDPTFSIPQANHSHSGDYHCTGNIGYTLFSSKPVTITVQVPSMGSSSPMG

| Substance | Kd [1] | Kd [2] | Kd [3] | Kd [4] | Kd [5] | Kd [6] | Kd [7] |
| --- | --- | --- | --- | --- | --- | --- | --- |
| defucosylated trastuzumab with wild-type Fc (antibody) | 2.09 µM | 0.0465 µM | 1.46 µM | 0.0123 µM | 1.78 µM |  |  |
| rituximab with Fc variant H268E/A330Y/I332D (antibody) | 0.526 µM | 0.094 µM | 0.68 µM | 0.0606 µM | 1.47 µM | 0.0219 µM | 0.00504 µM |
| rituximab with Fc variant H268E/K326I/I332E (antibody) | 1.95 µM | 0.311 µM | 1.21 µM | 0.143 µM | 1.69 µM | 0.0257 µM | 0.00611 µM |
| rituximab with Fc variant H268E/K326M/I332E (antibody) | 0.882 µM |  | 0.738 µM | 0.0691 µM | 1.05 µM | 0.026 µM | 0.00515 µM |
| rituximab with Fc variant H268E/K326S/I332E (antibody) | 0.814 µM | 0.151 µM | 0.803 µM | 0.0747 µM | 1.13 µM | 0.025 µM | 0.00518 µM |

The remaining substances from weak to strong by Kd [1], led by results:

| Kd [1] | Kd [2] | Kd [3] | Kd [4] | Kd [5] | Kd [6] | Kd [7] | Substance |
| --- | --- | --- | --- | --- | --- | --- | --- |
| 1.09 µM | 0.944 µM | 1.25 µM | 0.403 µM | 2.41 µM | 0.021 µM | 0.00867 µM | rituximab with wild-type Fc (antibody) |
| 1.04 µM | 0.00355 µM | 0.42 µM | 0.00171 µM | 1.03 µM |  |  | defucosylated trastuzumab with Fc variant H268E/K326M/I332E (antibody) |
| 1 µM | 0.174 µM | 1.5 µM | 0.0385 µM | 1.24 µM |  |  | fucosylated trastuzumab with wild-type Fc (antibody) |
| 0.669 µM | 0.00262 µM | 0.369 µM | 0.00136 µM | 1.46 µM |  |  | defucosylated trastuzumab with Fc variant H268E/K326S/I332E (antibody) |
| 0.627 µM | 0.156 µM | 0.575 µM | 0.0611 µM | 0.906 µM | 0.0215 µM | 0.00564 µM | rituximab with Fc variant H268E/A330T/I332E (antibody) |
